Reference: the supplement of paper PMC7877785
± gives the uncertainty stated by the source.

Experiment: self-splicing fitness, log relative to wild type (ln ratio); higher = more splicing; Tetrahymena group I intron in knt gene, E. coli kanamycin selection, DiMSum; sequences stand for … in CUCUCU…GGAGGGAAAAGUUAUCAGGCAUGCACCUGGUAGCUAGUCUUUAAACCAAUAGAUUGCAUCGGUUUAAAAGGCAAGACCGUCAAAUUGCGGGAAAGGGGUCAACAGCCGUUCAGUACCAAGUCUCAGGGGAAACUUUGAGAUGGCCUUGCAAAGGGUAUGGUAAUAAGCUGACGGACAUGGUCCUAACCACGCAGCCAAGUCCUAAGUCAACAGAUCUUCUGUUGAUAUGGAUGCAGUUCACAGACUAAAUGUCGGUCGGGGAAGAUGUAUUCUUCUCAUAAGAUAUAGUCGGACCUCUCCUUAAUGGGAGCUAGCGGAUGAAGUGAUGCAACACUGGAGCCGCUGGGAACUAAUUUGUAUGCGAAAGUAUAUUGAUUAGUUUUGGAGUACUCGUGGUCG
In short: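 Pooled colonies went to amplicon sequencing on an Illumina HiSeq 2500 after six replicate transformations. The plates were LB agar with 100 μg/mL carbenicillin, 50 μM IPTG and 0.2% rhamnose, with or without 25 μg/mL kanamycin, incubated overnight at 37°C or 30°C. The E. coli BL21(DE3) library had all eight P1ex-region intron nucleotides randomised, the intron placed in the knt kanamycin-resistance gene on pET-22b(+). DiMSum fitness is the error-weighted combination of replicate fold changes, kanamycin against none, normalised to wild type.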

## CUCAAGCAAUAUUACGUCAC
30 °C
  self-splicing fitness (ln): -3.4 ± 0.22
37 °C
  self-splicing fitness (ln): -2.7 ± 0.21

## UGGGAGCAAUAUUACGGUGG
30 °C
  self-splicing fitness (ln): -2.67 ± 0.46

## ACUUAGCAAUAUUACGAGCA
30 °C
  self-splicing fitness (ln): -1.2 ± 0.12
37 °C
  self-splicing fitness (ln): -0.129 ± 0.13

## GUCUAGCAAUAUUACGGCGA
30 °C
  self-splicing fitness (ln): -0.49 ± 0.22
37 °C
  self-splicing fitness (ln): -0.132 ± 0.21

## AUGUAGCAAUAUUACGUCAG
30 °C
  self-splicing fitness (ln): -3.5 ± 0.18
37 °C
  self-splicing fitness (ln): -2.25 ± 0.16

## CGUGAGCAAUAUUACGACGG
30 °C
  self-splicing fitness (ln): -0.058 ± 0.098
37 °C
  self-splicing fitness (ln): 0.525 ± 0.11

## CGCCAGCAAUAUUACGUCUU
30 °C
  self-splicing fitness (ln): -3.58 ± 0.25
37 °C
  self-splicing fitness (ln): -1.45 ± 0.2

## CCAAAGCAAUAUUACGUAUC
30 °C
  self-splicing fitness (ln): -1.28 ± 0.11
37 °C
  self-splicing fitness (ln): -2.76 ± 0.24

## ACCAAGCAAUAUUACGCAUA
30 °C
  self-splicing fitness (ln): -1.77 ± 0.068
37 °C
  self-splicing fitness (ln): -1.44 ± 0.073

## GUAUAGCAAUAUUACGGCAC
30 °C
  self-splicing fitness (ln): -0.331 ± 0.3

## AUCAAGCAAUAUUACGAAGA
30 °C
  self-splicing fitness (ln): -1.66 ± 0.19
37 °C
  self-splicing fitness (ln): -1.64 ± 0.23

## UCAAAGCAAUAUUACGGCAA
30 °C
  self-splicing fitness (ln): -1.37 ± 0.15
37 °C
  self-splicing fitness (ln): -0.568 ± 0.12

## ACCUAGCAAUAUUACGUUUC
30 °C
  self-splicing fitness (ln): -3.55 ± 0.13
37 °C
  self-splicing fitness (ln): -1.94 ± 0.13

## UGGAAGCAAUAUUACGUGUA
30 °C
  self-splicing fitness (ln): -2.12 ± 0.099
37 °C
  self-splicing fitness (ln): -0.482 ± 0.1

## CACGAGCAAUAUUACGCAGG
30 °C
  self-splicing fitness (ln): -3.49 ± 0.21
37 °C
  self-splicing fitness (ln): -2.55 ± 0.2

## GUCUAGCAAUAUUACGAACA
30 °C
  self-splicing fitness (ln): -1.13 ± 0.13
37 °C
  self-splicing fitness (ln): -0.831 ± 0.11

## GAACAGCAAUAUUACGACAU
30 °C
  self-splicing fitness (ln): -0.575 ± 0.011
37 °C
  self-splicing fitness (ln): -0.153 ± 0.032

## CUGUAGCAAUAUUACGAUUC
30 °C
  self-splicing fitness (ln): -3.71 ± 0.23
37 °C
  self-splicing fitness (ln): -3.19 ± 0.4

## ACACAGCAAUAUUACGCUGG
30 °C
  self-splicing fitness (ln): -1.21 ± 0.063
37 °C
  self-splicing fitness (ln): -1.33 ± 0.091

## CUGGAGCAAUAUUACGACGU
37 °C
  self-splicing fitness (ln): -1.09 ± 0.2

## AGAGAGCAAUAUUACGCAAC
37 °C
  self-splicing fitness (ln): -1.44 ± 0.2

## GUUCAGCAAUAUUACGCAUA
30 °C
  self-splicing fitness (ln): -0.815 ± 0.083
37 °C
  self-splicing fitness (ln): 0.0985 ± 0.1

## AAUUAGCAAUAUUACGGAUC
30 °C
  self-splicing fitness (ln): -0.415 ± 0.11
37 °C
  self-splicing fitness (ln): 0.186 ± 0.12

## UAGGAGCAAUAUUACGUCUG
30 °C
  self-splicing fitness (ln): -0.473 ± 0.13
37 °C
  self-splicing fitness (ln): 0.629 ± 0.15

## UCAGAGCAAUAUUACGCGAU
30 °C
  self-splicing fitness (ln): -3.02 ± 0.26
37 °C
  self-splicing fitness (ln): -2.08 ± 0.4

## UACGAGCAAUAUUACGACCG
30 °C
  self-splicing fitness (ln): -1.8 ± 0.45

## ACGUAGCAAUAUUACGCCCG
30 °C
  self-splicing fitness (ln): -0.224 ± 0.13
37 °C
  self-splicing fitness (ln): -0.474 ± 0.17

## ACGCAGCAAUAUUACGAUUC
30 °C
  self-splicing fitness (ln): -2.28 ± 0.085
37 °C
  self-splicing fitness (ln): -1.43 ± 0.096

## AUACAGCAAUAUUACGGUCA
30 °C
  self-splicing fitness (ln): -0.743 ± 0.09
37 °C
  self-splicing fitness (ln): -0.0276 ± 0.099

## AUCCAGCAAUAUUACGGUAC
30 °C
  self-splicing fitness (ln): -1.77 ± 0.12
37 °C
  self-splicing fitness (ln): -0.693 ± 0.14

## UGCCAGCAAUAUUACGAACU
30 °C
  self-splicing fitness (ln): -2.14 ± 0.11
37 °C
  self-splicing fitness (ln): -0.854 ± 0.13

## CAGUAGCAAUAUUACGGGAG
30 °C
  self-splicing fitness (ln): -2.37 ± 0.18
37 °C
  self-splicing fitness (ln): -1.91 ± 0.27

## UCACAGCAAUAUUACGCGGG
30 °C
  self-splicing fitness (ln): -3.28 ± 0.12
37 °C
  self-splicing fitness (ln): -2.56 ± 0.16

## CCUGAGCAAUAUUACGAGUC
37 °C
  self-splicing fitness (ln): -2.36 ± 0.34

## UGUGAGCAAUAUUACGCGCA
30 °C
  self-splicing fitness (ln): -1.34 ± 0.44
37 °C
  self-splicing fitness (ln): -0.203 ± 0.48

## UGCAAGCAAUAUUACGGCUA
30 °C
  self-splicing fitness (ln): 0.00387 ± 0.089
37 °C
  self-splicing fitness (ln): -0.123 ± 0.1

## AUUCAGCAAUAUUACGAUUG
30 °C
  self-splicing fitness (ln): -1.88 ± 0.16
37 °C
  self-splicing fitness (ln): -1.05 ± 0.2

## AGUAAGCAAUAUUACGUCAA
30 °C
  self-splicing fitness (ln): -3.78 ± 0.21
37 °C
  self-splicing fitness (ln): -2 ± 0.15

## UCGCAGCAAUAUUACGCAUC
30 °C
  self-splicing fitness (ln): -2.52 ± 0.21
37 °C
  self-splicing fitness (ln): -1.57 ± 0.17
